Source: article PMC8253144 (mAbs, 2021)
Each block holds one binder with its values, some of them ahead of it.

Molecular target: recombinant human EPHA2 ectodomain (Homo sapiens, UniProt P29317)
Assay: BLI

Sequence of recombinant human EPHA2 ectodomain (P29317 24-537): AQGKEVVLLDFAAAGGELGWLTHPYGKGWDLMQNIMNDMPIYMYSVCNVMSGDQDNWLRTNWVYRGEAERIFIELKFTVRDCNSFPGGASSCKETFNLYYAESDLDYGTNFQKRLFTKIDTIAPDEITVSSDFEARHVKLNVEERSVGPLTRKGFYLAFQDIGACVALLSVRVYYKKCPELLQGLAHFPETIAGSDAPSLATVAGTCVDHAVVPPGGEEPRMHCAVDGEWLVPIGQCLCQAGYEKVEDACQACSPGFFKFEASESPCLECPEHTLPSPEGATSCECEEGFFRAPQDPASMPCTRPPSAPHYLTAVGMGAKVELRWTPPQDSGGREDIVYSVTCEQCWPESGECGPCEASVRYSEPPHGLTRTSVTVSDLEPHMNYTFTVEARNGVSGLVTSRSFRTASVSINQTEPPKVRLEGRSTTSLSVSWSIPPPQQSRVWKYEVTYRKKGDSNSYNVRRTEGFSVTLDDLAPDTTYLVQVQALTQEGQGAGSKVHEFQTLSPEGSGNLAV

binding result: binds
B1: anti-EPHA2 Fab A2-4 (Fab, V domains shown)
VH: EVQLVESGGGLVQPGGSLRLSCAASGFNISSYYMHWVRQAPGKGLEWVASISPSYSYTYYADSVKGRFTISADTSKNTAYLQMNSLRAEDTAVYYCARGWSFVGMDYWGQGTLVTVSS
VL: DIQMTQSPSSLSASVGDRVTITCRASQSVSSAVAWYQQKPGKAPKLLIYSASSLYSGVPSRFSGSRSGTDFTLTISSLQPEDFATYYCQQGAPWSPITFGQGTKVEIK

binding result: binds
B2: anti-EPHA2 Fab A2-3 (Fab, V domains shown)
VH: EVQLVESGGGLVQPGGSLRLSCAASGFNISYYYMHWVRQAPGKGLEWVASIYPSYSYTSYADSVKGRFTISADTSKNTAYLQMNSLRAEDTAVYYCARGGVVSWAHPAASYYVYGAMDYWGQGTLVTVSS
VL: DIQMTQSPSSLSASVGDRVTITCRASQSVSSAVAWYQQKPGKAPKLLIYSASSLYSGVPSRFSGSRSGTDFTLTISSLQPEDFATYYCQQAVWSGYPITFGQGTKVEIK
